# Measured values published in patent US12269859B2, “Synthetic immune receptors and methods of use thereof” (Angeles Therapeutics, Inc., priority 2016, dated 2025).
# B1: 010716-G03 (protein)
# chain: MALPVTALLLPLALLLHAARPDIQMTQSFSSLSASVGDRVTITCRASQDISNYLNWYQQKPGKAPKLLIYYTSRLHSGVPSRFSGSGSGTDYTLTISSLQPEDFATYFCQQGNTLPWTFGGGTKLEIKRLEGKPIPNPLLGLDSTGSGEDLKNVFPPEVAVFEPSKAEIAHTQKATLVCLATGFYPDHVELSWWVNGKEVHSGVCTDPQPLKEQPALNDSRYCLSSRLRVSATFWQNPRNHFRCQVQFYGLSENDEWTQDRAKPVTQIVSAEAWGRADCGITSASYHQGVLSATILYEILLGKATLYAVLVSALVLMAMVKRKDSRGRAKRSGSGATNFSLLKQAGDVEENPGPTSMDWIWRILFLVGAATGAHSFEEVQLVQSGGGLVQSGGSLRLSCRASGYTFTRYWMLWVRQRPGKGLEWVAEINPRNDRTNYNEKFKTRFTISVDRSKNTLYLQMDSLRAEDTAVYFCALGGGYAMDYWGQGTLVTVSSTREQKLISEEDGSGIQNPDPAVYQLRDSKSSDKSVCLFTDFDSQTNVSQSKDSDVYITDKCVLDMRSMDFKSNSAVAWSNKSDFACANAFNNSIIPEDTFFPSSDVPCDVKLVEKSFETDTNLNFQNLSVIGFRILLLKVAGFNLLMTLRLWSSRAKRSGSGVKQTLNFDLLKLAGDVESNPGPSRGHMTEYKPTVRLATRDDVPRAVRTLAAAFADYPATRHTVDPDRHIERVTELQELFLTRVGLDIGKVWVADDGAAVAVWTTPESVEAGAVFAEIGPRMAELSGSRLAAQQQMEGLLAPHRPKEPAWFLATVGVSPDHQGKGLGSAVVLPGVEAAERAGVPAFLETSAPRNLPFYERLGFTVTADVEVPEGPRTWCMTRKPGA
# modifications: Synthetic Immune Receptor (SIR)
# B2: 121815-C05 (protein)
# chain: MALPVTALLLPLALLLHAARPDELQMTQSPSSLSASVGDRVTITCRASQSISSYLNWYQQKPGQPPKLLIYWASTRESGVPDRFSGSESGTNYTLTISSLQPEDFATYFCQQSDSLPITFGQGTRLDIQLEGKPIPNPLLGLDSTGSGEDLKNVFPPEVAVFEPSKAEIAHTQKATLVCLATGFYPDHVELSWWVNGKEVHSGVCTDPQPLKEQPALNDSRYCLSSRLRVSATFWQNPRNHFRCQVQFYGLSENDEWTQDRAKPVTQIVSAEAWGRADCGITSASYHQGVLSATILYEILLGKATLYAVLVSALVLMAMVKRKDSRGRAKRSGSGATNFSLLKQAGDVEENPGPTSMDWIWRILFLVGAATGAHSFEEVQLLESGGGVVQPGRSLRLSCAASGFTFSSYGMHWVRQAPGKGLEWVAVISYDGSNKYYADSVKGRFTISRDNSKNTLYLQMNSLRAEDTAVYYCAKDMGWGSGWRPYYYYGMDVWGQGTTVTVSSTREQKLISEEDGSGIQNPDPAVYQLRDSKSSDKSVCLFTDFDSQTNVSQSKDSDVYITDKCVLDMRSMDFKSNSAVAWSNKSDFACANAFNNSIIPEDTFFPSSDVPCDVKLVEKSFETDTNLNFQNLSVIGFRILLLKVAGFNLLMTLRLWSSRAKRSGSGVKQTLNFDLLKLAGDVESNPGPSRGHMTEYKPTVRLATRDDVPRAVRTLAAAFADYPATRHTVDPDRHIERVTELQELFLTRVGLDIGKVWVADDGAAVAVWTTPESVEAGAVFAEIGPRMAELSGSRLAAQQQMEGLLAPHRPKEPAWFLATVGVSPDHQGKGLGSAVVLPGVEAAERAGVPAFLETSAPRNLPFYERLGFTVTADVEVPEGPRTWCMTRKPGA
# modifications: Synthetic Immune Receptor (SIR)
# B3: IL-7: exogenous recombinant human IL-7 (protein, UniProt P13232 26-177, looked up)
# Interleukin-7: DCDIEGKDGKQYESVLMVSIDQLLDSMKEIGSNCLNNEFNFFKRHICDANKEGMFLFRAARKLRQFLKMNSTGDFDLHLLKVSEGTTILLNCTGQVKGRKPAALGEAQPTKSLEENKSLKEQKKLNDLCFLKRLLQEIKTCWNKILMGTKEH
# What was measured:
# SKOV-3 cells = experiment: SKOV-3 intraperitoneal xenograft in NSG mice (survival); type: in vivo; conditions: NSG mice (n = 3), 1×10^6 SKOV-3 cells intraperitoneally, 5 million T cells intravenously
# Method: Human peripheral blood T cells isolated using CD3 magnetic beads were infected with lentiviruses expressing the indicated SIR constructs targeting Folate receptor 1 (FR1), L1CAM and Epcam1. On day 1, the NSG mice were sub-lethally irradiated at a dose of 175 cGy. 24 hours post irradiation (day 2), mice were injected with 1×10^6 SKOV-3 cells intraperitoneally. On day 3, the mice were treated intravenously with 5 million indicated CAR-T cells. Beginning On day 4, mice were injected with human IL-2 i.p. at a dose of 400 IU/mice every alternate day after the injection CAR-T cells till the death of all mice in control group.
# [1] = system: target antigen-expressing cell line; experiment: Jurkat NFAT-GFP assay, coculture with target cell lines expressing the respective target antigen (summary Table 10A); type: cell-based, human; parameters: key: The signs +/−, +, 2+ etc. after the name of the cell lines indicate the relative degree of positivity on the Jurkat-NFAT-GFP assay as measured by the % GFP positive cells; +: relative degree of positivity on the Jurkat-NFAT-GFP assay as measured by the % GFP positive cells; 2+: relative degree of positivity on the Jurkat-NFAT-GFP assay as measured by the % GFP positive cells
# Outline: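 Positivity is scored when SIR-expressing reporter Jurkat cells show more GFP-positive cells than parental controls after coculture with the antigen-bearing line. Effector-to-target ratio is about 1:2, coculture lasts roughly 4–18 hours, and GFP is quantified by FACS.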
# RAJI cells = experiment: RAJI xenograft model of lymphoma in NSG mice (survival); type: in vivo; conditions: 200 ng/mouse intraperitoneal three times, with SIR-T cells
# Method: In vivo efficacy of SIR targeting CD19. […] SIR constructs and Gluc-PAC-G07 control construct encoding non-secretory form of Guassia Luciferase. Approximately half the cells were selected with puromycin while the other half was expanded without puromycin selection. NSG mice (Jackson Lab) were sub-lethally irradiated at a dose of 175 cGy. Approximately 24 hours post irradiation (day 2), mice were injected with 2.5×10^4 RAJI cells via tail-vein. […] Control mice (n=5) received no T cells or uninfected T cells. Mice were given human IL2 (400 IU intraperitoneally) on alternate days till the death of all mice in control group.
# Approximately half the cells were selected with puromycin while the other half was expanded without puromycin selection. NSG mice (Jackson Lab) were sub-lethally irradiated at a dose of 175 cGy. Approximately 24 hours post irradiation (day 2), mice were injected with 2.5×10^4 RAJI cells via tail-vein. […] Control mice (n=5) received no T cells or uninfected T cells. Mice were given human IL2 (400 IU intraperitoneally) on alternate days till the death of all mice in control group.
# SIR construct. NSG mice (Jackson Lab) were sub-lethally irradiated at a dose of 175 cGy. Approximately 24 hours post irradiation (day 2), mice were injected with 2.5×10^4 RAJI cells via tail-vein. […] SIR encoding lentivirus. […]
Molecule,Median Survival (SKOV-3 cells) [days],NFAT-GFP ASSAY Positive Cell lines ([1]; coculture with A549 cells),NFAT-GFP ASSAY Positive Cell lines ([1]; coculture with LoVo cells),NFAT-GFP ASSAY Positive Cell lines ([1]; coculture with PC3 cells),NFAT-GFP ASSAY Positive Cell lines ([1]; coculture with SKOV3 cells),tumor rejection and survival (in words) (RAJI cells)
B1,63,"LoVo (+), A549 (+),","LoVo (+), A549 (+),",–,–,–
B2,63,"A549 (2+), Hela",–,2+,(+),–
B3,–,–,–,–,–,reject their tumor and survive longer
